Here are results for 2 molecules from patent US6100378A, “Enhancement of the pro-fertility action of a molecule involved in a sperm-egg binding” (BioPore, Inc., priority 1999, dated 2000).

Values joined by “and” are separate entries in the source; they are usually repeats but may differ in a detail not shown here. Equal entries are not always repeated. Bridge positions count the residues as written; N and C are the ends. Ends that are not written are not given here. Where only a bound is given, the exact number is not on record here.

In data set [1] the test system is frozen-thawed rooster sperm bound to an egg-membrane substrate. Kind of data set: BioPore Sperm-Binding Assay: percentage of sperm binding to an egg-membrane substrate. The class given is cell-based. As to conditions: 10 minutes at 37° C. exposure, 2 million sperm/well. The method, then:
All three peptides were incubated at 0, 20 and 80 ng peptide/million sperm prior to evaluation. Ration % bound calculated as: % bound with Peptide / % bound for Control; and
We used the BioPore® Sperm-Binding Assay (Amann et al., 1999) to compare. percentage of sperm binding to an egg-membrane substrate (similar to Barbato et al., 1998) after brief in vitro exposure to three concentrations of a prior art peptide (Hammerstedt et al., 1997), representing each of two lots of peptide SEQ ID NO: 4 (after disulfide linking the cystine residues) or three concentrations of SEQ ID NO: 1 (after disulfide linking the cystine residues). Briefly, cryopreserved rooster semen (Gill et al., 1996) from broiler males (Barbato et al., 1998) was thawed, deglycerolated (Gill et al., 1996), and adjusted to provide a concentrated suspension of sperm in an appropriate salts buffer. We used one containing: 0.600 g sodium glutamate, 0.210 g potassium glutamate, 0.100 g glucose, 0.070 g sorbitol, 0.035 g magnesium sulfate, 0.210 g potassium acetate, 0.050 g potassium citrate, 0.700 g di-potassiumphosphate, 0.160 g mono-potassium phosphate, 0.800 g di-sodium phosphate, 0.100 9 potassium hydroxide, 0.300 g N,N -bis[2-hydroxyethyl]-2-aminoethanesulfonic acid, 0.400 g N-[2-hydroxyethyl]piperazine-N'-[2-ethanesulfonic acid], and 0.400 g N-tris[hydroxymethyl]methyl-2-aminoethanesulfonic acid, dissolved in distilled water to make 100 ml (Tajima et al., 1989). Aliquots of this suspension were placed in tubes containing one of the three peptide sequences at 0, 20 or 80 ng per million sperm. After mixing and 10 minutes incubation at 37° C., the suspensions were further diluted and assayed using 2 million sperm/well in the microwell assay plates. Plates were incubated at 32° C. for 60 min, after which unbound sperm were decanted, the wells washed, and the DNA in sperm bound to the egg-membranesubstrate in the microwell plates quantified (Barbato et al., 1998). […] With SEQ ID NO: 1, however, binding for suspensions exposed to either 20 or 80 ng/million sperm was greater, namely 1.20 and 1.22 the control value.

Data set [2] deals with White Leghorn hens inseminated with frozen-thawed rooster sperm. Description: Fertility trial: artificial insemination of hens with frozen-thawed rooster sperm exposed to peptide. The class given is in vivo, chicken. The text has this:
Each bar based on >425 eggs.
To compare fertility achieved after exposure of rooster sperm to SEQ ID NO: 4 and SEQ ID NO: 1, we used cryopreserved semen as in Example 1. To facilitate detection of benefit from peptides, we used a limited number of sperm for each artificial insemination. Pooled, deglycerolated semen (1 billion sperm/ml; at 0-4C.), in salts buffer as described in Example 1, was dispensed into tubes containing SEQ ID NO: 4 or SEQ ID NO: 1 to make nine suspensions: 0.0 (control), 0.2, 0.5, 1.0 or 2.0 μM and mixed. Artificial insemination of White Leghorn hens (40/group) was within 1 hour, and used 50 μl (50 million sperm). Eggs were collected daily, stored ≤7 d at 14C., incubated, and candled on day 7 (eggs with viable embryo were classed as fertile). Data resulting from four inseminations at 4-day intervals are shown (FIG. 2). It was concluded that both 0.2 and 0.5 μM SEQ ID NO: 4 improved fertility as did 0.2, 0.5, 1.0 and 2.0 μM SEQ ID NO: 1. […] The increase in fertility (above the control value) with the best concentration of SEQ ID NO: 1 (15.4 units at 2.0 μM) was 2.0× that with SEQ ID NO: 4 (7.8 units at 0.5 μM). Clearly, brief in vitro exposure of sperm to SEQ ID NO: 1 rather than SEQ ID NO: 4 before artificial insemination gave a greater increase in percentage of fertilized eggs over a greater range in concentration.

[3] abbreviates: 20 ng peptide/million sperm, SEQ ID NO: 4 as 2 preparations (lots).

As for “CQSLQEYLAEQNQRQLESNKIPEVDLARVVAPFMSNIPLLLYPQDRPRSQPQPKANEDVC (disulfide 1-60) [SEQ ID NO: 4, reference compound]”, the “binding relative to the value for the non-peptide control (ratio % bound with peptide / % bound for control)” value in data set [1] (setting [3]) was 1.13 × and 1.17 ×.

B1: Cys-Gln-Ser-Leu-Gln-Glu-Tyr-Leu-Ala-Glu-Gln-Asn-Gln-Arg-Gln-Leu-Glu-Ser-Asn-Lys-Ile-Pro-Glu-Val-Asp-Leu-Ala-Agr-Val-Val-Ala-Pro-Phe-Met-Ser-Asn-Ile-Pro-Leu-Leu-Leu-Tyr-Pro-Gln-Asp-Arg-Pro-Arg-Ser-Gln- … (peptide)
chain: CQSLQEYLAEQNQRQLESNKIPEVDLAAVVAPFMSNIPLLLYPQDRPRSQPQPKANEDVCVNHHHHHH
As for B1, the entries for the “binding relative to the value for the non-peptide control (ratio % bound with peptide / % bound for control)” value in data set [1] (setting [3]) and in data set [1] (80 ng peptide/million sperm) were 1.20 × and 1.22, respectively. Besides, in data set [2] (2.0 μM peptide, percentage of fertilized eggs, 50 million sperm, four inseminations at 4-day intervals), the “increase in fertility (above the control value) with the best concentration” value is given as 15.4 units. For the same molecule, the “increase in fertility with best concentration relative to that with SEQ ID NO: 4” value in data set [2] (SEQ ID NO: 1 at 2.0 μM vs SEQ ID NO: 4 at 0.5 μM) is on record as 2.0 ×. The “fold range of concentrations of benefit to fertility” value in data set [2] (tested 0.2, 0.5, 1.0, 2.0 μM) is on record as no less than 10 fold.
